7 molecules from patent US9526786B2, “Thermostabilization of proteins” (The Trustee of Columbia University in the City of New York, priority 2007, dated 2016) can be followed below.

Changes are numbered by the printed parent chain. Names may count otherwise.

For data set [1], the target named is T1, CocE (Rhodococcus sp., UniProt Q9L9D7).
T1 construct: 6xHis (C); made in house; host or cells: E. coli BL-21 Gold (DE3), pET-22b(+)
T1 sequence (Q9L9D7 1-574): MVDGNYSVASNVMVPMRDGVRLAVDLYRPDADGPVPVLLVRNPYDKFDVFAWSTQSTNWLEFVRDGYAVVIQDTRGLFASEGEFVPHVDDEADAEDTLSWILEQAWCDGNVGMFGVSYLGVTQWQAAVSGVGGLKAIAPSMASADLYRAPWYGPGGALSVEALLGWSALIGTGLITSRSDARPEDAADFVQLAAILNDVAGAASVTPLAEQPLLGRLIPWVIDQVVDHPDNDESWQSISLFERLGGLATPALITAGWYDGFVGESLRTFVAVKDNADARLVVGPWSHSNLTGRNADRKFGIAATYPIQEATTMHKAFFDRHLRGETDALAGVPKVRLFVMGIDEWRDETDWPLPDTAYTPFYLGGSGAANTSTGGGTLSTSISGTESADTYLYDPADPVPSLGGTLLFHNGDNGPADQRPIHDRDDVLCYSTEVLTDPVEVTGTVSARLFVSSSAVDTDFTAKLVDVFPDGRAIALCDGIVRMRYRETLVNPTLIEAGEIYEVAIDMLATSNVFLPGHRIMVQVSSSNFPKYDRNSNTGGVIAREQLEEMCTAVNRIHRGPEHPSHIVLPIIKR
The format is biochemical, Rhodococcus sp. MB 1. The note with it: cocaine: 62.5 and 125 μM; benzoic acid: higher concentrations. Here is the method: CocE is also able to cleave another substrate, 4-nitrophenyl acetate (FIG. 3). Cleavage is monitored by detection of the appearance of the 4-nitrophenol reaction product, which absorbs at 400 nm.
Further spectrophotometric analysis of cocaine stabilization was performed, by analyzing the ability of CocE to cleave 4-nitrophenyl acetate, after preincubation at 37° C. for various times, in the presence of various concentrations of cocaine. […] However, preincubation of CocE at the higher concentrations for various times at 37° C. indicated the enzyme was stabilized enough to be able to cleave the 4-nitrophenyl substrate (FIG. 5).

Data set [2] deals with T1, CocE. Type of data set: biochemical, Rhodococcus sp. MB 1. The following applies: for stabilization of CocE at 37° C., lower concentrations: cocaine lower than 62.5 μM, others below 125 μM. Here is the method: Further spectrophotometric analysis of cocaine stabilization was performed, by analyzing the ability of CocE to cleave 4-nitrophenyl acetate, after preincubation at 37° C. for various times, in the presence of various concentrations of cocaine.

A further data set has as its target T2, CocE WT (Rhodococcus sp., UniProt Q9L9D7).
T2 construct: 6xHis (C); made in house; host or cells: E. coli BL-21 Gold (DE3), pET-22b(+)
T2 sequence (Q9L9D7 1-574): T1 sequence (Q9L9D7 1-574)
The data set can be described thus: Inhibition of CocE WT aggregate formation, non-denaturing gel, 1 hour at 37° C. More on the design: species or system Rhodococcus sp. MB 1. The text has this:
To further study CocE stabilization with small molecules, other inhibitors of the CocE cleavage reaction were considered.

The procedure of data set [3]: Analysis of CocE action on cocaine cleavage is performed by utilizing the spectroscopic properties of cocaine, which maximally absorbs light at a 240 nm wavelength. CocE activity is measured by monitoring for a decrease in signal at A240, using various concentrations of cocaine, and determining the initial rate of the decrease. From these values the Vmax of the enzyme can be determined. By pre-incubating the enzyme at 37° C. for various times before monitoring for activity, the half life of CocE at 37° C. can be calculated.
The initial rates (of decay) were determined by following the change in the intrinsic absorbance of cocaine at 240 nm (6700 M^1 cm^1)(Xie et al., 1999) using a SpectraMax Plus 384 UV plate reader (Molecular Devices, Sunnyvale, Calif.) using SOFTmax Pro software (Version 3.1.2). The reaction was initiated by adding 100 μL of a 2× enzyme solution (100 mM phosphate buffer, pH 7.4 and 300 mM NaCl) to 100 μL of a 2× cocaine solution (50 μg/mL enzyme, 100 mM Phosphate Buffer, pH 7.4 and 300 mM NaCl). All assays were performed with 100 μM DTT unless indicated otherwise. […] For stability measurements, wild type and mutant enzymes were diluted to 2× concentration and incubated at 37° C. for the times indicated. At the end of each time point, an aliquot was removed and kinetic behavior was observed as outlined above.
(§1) In vitro kinetic assays. […] Initial rates were then used to determine Michaelis-Menten parameters. To assess thermal stability, enzyme preparations were preincubated at 37° C. for various lengths of time, prior to measurement of residual activities (Table 1 and FIG. 23).

Data set [4] can be described thus: Michaelis-Menten kinetics of cocaine hydrolysis (absorbance at 240 nm). The format is biochemical. Here is the method:
The initial rates (of decay) were determined by following the change in the intrinsic absorbance of cocaine at 240 nm (6700 M^1 cm^1)(Xie et al., 1999) using a SpectraMax Plus 384 UV plate reader (Molecular Devices, Sunnyvale, Calif.) using SOFTmax Pro software (Version 3.1.2). The reaction was initiated by adding 100 μL of a 2× enzyme solution (100 mM phosphate buffer, pH 7.4 and 300 mM NaCl) to 100 μL of a 2× cocaine solution (50 μg/mL enzyme, 100 mM Phosphate Buffer, pH 7.4 and 300 mM NaCl). All assays were performed with 100 μM DTT unless indicated otherwise. Final cocaine concentrations were as follows: 125, 62.5, 31.25, 15.63, 7.81, 3.91, 1.95, and 0.977 μM. Vmax and Km values were calculated using Prism (GraphPad Software, San Diego). For stability measurements, wild type and mutant enzymes were diluted to 2× concentration and incubated at 37° C. for the times indicated. At the end of each time point, an aliquot was removed and kinetic behavior was observed as outlined above.
as §1
Determination of Catalytic Efficiency. To determine the catalytic activity a spectrophometric assay was performed. Samples of L169K/G173Q CocE were added to a 96-well UV permeable plate containing increasing cocaine concentrations (0.5, 2.5, 5, 12.5, 25, 50, 100, and 150 μM) to give a final concentration of 10 ng/ml CocE in a final volume of 200 μl. The change in absorbance at 240 nm was measured over 20 minutes, with readings every 10 seconds, by a SpectraMax Plus 384 UV plate reader (Molecular Devices, Sunnyvale, Calif.) using SOFTmax Pro software (Version 3.1.2). The change in absorbance was converted to the change in concentration and furthermore the rate of decay per mole enzyme is determined (Kcat). Kcat and Km of the enzyme are determined using Prism (GraphPad software, San Diego).

Data set [5] has as its system cocaine-induced lethality. The experiment in a line: In vivo potency of protection against cocaine-induced lethality. Set-up: species or system NIH-Swiss mice.
The subject of data set [6] is cocaine-induced lethality. The experiment in a line: In vivo duration of protection against cocaine-induced lethality. More on the design: species or system NIH-Swiss mice. As to the method: In vivo protection against cocaine lethality. Male NIH-Swiss mice (25-32 g) were obtained from Harlan Inc. (Indianapolis, Ind.) and were housed in groups of 6 mice per cage. All mice were allowed ad libitum access to food and water, and were maintained on a 12-h light-dark cycle with lights on at 06.30 AM in a room kept at a temperature of 21-22° C. Experiments were performed in accordance with the Guide for the Care and Use of Laboratory Animals as adopted and promulgated by the National Institutes of Health. The experimental protocols were approved by the University Committee on the Use and Care of Animals at the University of Michigan.
Cocaine-induced toxicity was characterized by the occurrence of lethality, as defined by the cessation of observed movement and respiration. Mice were placed individually in Plexiglas observation chambers (16×28×20 cm high) to be habituated for 15 min before drug administration. Following intra-peritoneal (i.p.) cocaine administration, the mouse was immediately placed individually in the same chamber for observation. The presence or absence of lethality was recorded for 60 min following cocaine administration. The mouse was placed in a small restraint chamber (Outer tube diameter: 30 mm; Inner tube diameter: 24 mm) that left the tail exposed. The tail was cleansed with an alcohol wipe and a 30G1/2 precision glide needle (Fisher Scientific, Pittsburgh, Pa.) was inserted into one of the side veins for infusion. The i.v. injection volume of CocE or CocE mutant was 0.2 mL per mouse. Sterile gauze and pressure were applied to the injection site to staunch the bleeding.
Lethality was monitored following injection at 1, 5, 10, or 30 min, or 1, 2, 3, 4, 5 hours after enzyme administration. Each treatment used 8 mice to assess the percent of lethality (i.e., protection) in mice pretreated with a single dose of an esterase at a single time point.
These values were used to compare the degree of rightward shifts of cocaine's dose-response curve in the absence or presence of the enzyme pretreatment. In the time course study, a time point for duration of protection (i.e., 50% of lethality) was estimated by using each time course curve crossing 50% occurrence of lethality.
Evaluation of in vivo half life. CocE is administered IV to the tail vein in a volume of 0.2 ml. Animals are challenged with 180 mg/kg cocaine delivered intraperitoneally at a given time after CocE administration.

Where [7] appears, read: 1 mg i.v., cocaine 180 mg/kg i.p.

Take `O=C(O)c1ccccc1` [benzoic acid]: the “inhibition of 4-nitrophenyl acetate cleavage” value on CocE [1] is “inhibit”. The “stabilization of CocE at 37° C., higher concentrations” value on CocE [2] (cocaine 62.5 and 125 μM, benzoic acid above 125 μM) is “stabilize”. Moreover, on CocE [2], the “stabilization of CocE at 37° C., lower concentrations” value (“stabilization … lower concentrations” for short) was “did not reveal any stabilization”. Further, the “inhibition of formation of CocE protein aggregates” value against CocE WT is “inhibited the formation of aggregates”.

Consider `CC(=O)[O-].[Na+]` [sodium acetate], for which, on CocE [2], the “stabilization … lower concentrations” value is recorded as “did not reveal any stabilization”. Further, the “inhibition of formation of CocE protein aggregates” value at CocE WT is “could not”.

`COC(=O)[C@@H]1[C@H]2CC[C@@H](C[C@@H]1O)N2C` [ecgonine methyl ester]: the “stabilization … lower concentrations” value at CocE [2] is given as “did not reveal any stabilization”. The “inhibition of formation of CocE protein aggregates” value on CocE WT is on record as “could not”.

B1: T172R/G173Q: CocE double mutant (protein, listed as Rhodococcus sp.)
chain: T1 sequence (Q9L9D7 1-574) with T172R, G173Q
Turning to B1, in data set [3], the “Stability @ 37 (t1/2)” value is about 5.43 h, the “half-life / τinact of activity at 37° C.” value was determined as 5.43 h and the “t1/2” value is 5.43 h. Further, the “plateau of catalytic activity, percent of maximal” value in data set [3] (37° C., after greater than 8 hr / t=10 hours) is on record as “approximately 35%”. Moreover, the “extension of in vitro τinact at 37° C.” value in data set [3] (from 10 min) was “approximately 27 fold”. For the same molecule, the “Kcat(mol · s^−1 · mol^−1)” value in data set [4] (cocaine) is listed as 2247 mol · s^−1 · mol^−1. The “protection against cocaine-induced lethality” value in data set [5] (i.v. pretreatment 1 min prior to i.p. cocaine) was “protected”. The “LT50, pretreatment time to 50% lethality” value in data set [6] (setting [7]) is “up to 4.5 hr”. Moreover, in data set [6] (1 mg i.v., cocaine 180 mg/kg i.p., listed as T172R-G173Q), the “LT50, pretreatment time to 50% lethality” value was about 4.5 h. The “extension of pretreatment duration with 50% protection” value in data set [6] (mouse, in vivo) was “greater than 20 fold”.

B2: L169K/G173Q/T172R: CocE triple mutant (protein)
chain: T1 sequence (Q9L9D7 1-574) with L169K, T172R, G173Q
For B2, in data set [3] (data not shown), the “enhanced stabilization at 37° C.” value is “did not display an enhanced stabilization”.

B3: L169K/G173Q: CocE double mutant, SEQ ID NO:1 with substitutions L169K and G173Q (protein, listed as Rhodococcus sp.)
chain: T1 sequence (Q9L9D7 1-574) with L169K, G173Q
Turning to B3, in data set [4], the “turnover per molecule of enzyme” value is listed as “approximately 6000 molecules of cocaine per minute”. Moreover, in data set [5] (i.v., cocaine i.p. 1 min later), the “lowest dose maintaining some degree of protection” value was found to be 0.01 mg and the “protection from increasing lethal doses of cocaine” value is recorded as “dose-dependently protected”. In data set [6] (setting [7]), the “time for which 50% of mice were protected from death” value is reported as “up to 7.5 hrs”.

B4: G173Q: CocE mutant (protein, listed as Rhodococcus sp.)
chain: T1 sequence (Q9L9D7 1-574) with G173Q
Take B4: the “Stability @ 37 (t1/2)” value in data set [3] is about 0.417 h.
